Numbered stars: 1 amine (or outer) side, 2 acyl side, 3 side chain; on linkers, the order of the positions; unused ones are H or OH. Square brackets hold non-standard residues; d marks the D form. Side chains are listed from the residue outwards. Ends that are not written are not given here. * marks the point of attachment. C18 diacid = O=C(O)CCCCCCCCCCCCCCCCC(=O)*; γGlu = O=C(O)[C@H](CCC(=O)[*:2])N[*:1]; Ac4c = NC1(C(=O)O)CCC1; AEEA = NCCOCCOCC(=O)O; Aib = CC(C)(N)C(=O)O
What was measured:
human glucagon receptor [1] = molecular target: T1, human glucagon receptor (human, UniProt P47871 26-477); experiment: displacement of 125I-glucagon, membranes with human glucagon receptor, SPA
T1 construct: whole, on cells; the potency assay used whole cells (clone pLJ6'-4-25); also called GlucR; hGCGR
Experimental: (§1) The receptor binding of each compound to the human glucagon receptor was measured in a displacement binding assay. […] Each derivative was added in a series of concentrations to isolated membranes containing the human glucagon receptor and displacement of the labelled ligand is monitored. The receptor binding was reported as the concentration at which half of the labelled ligand is displaced from the receptor, the IC₅₀ value.

human GLP-1 receptor [2] = molecular target: T2, human GLP-1 receptor (human, UniProt P43220 24-463); experiment: cell-based or functional assay
human glucagon receptor [3] = molecular target: T1, human glucagon receptor; experiment: cell-based or functional assay
human GLP-1 receptor [4] = molecular target: T2, human GLP-1 receptor; experiment: displacement of 125I-GLP-1(7-36)NH2, membranes with human GLP-1R, SPA
Experimental: as §1, with “human GLP-1” for “human glucagon”, “ligand was” for “ligand is”

T1 sequence (P47871 26-477): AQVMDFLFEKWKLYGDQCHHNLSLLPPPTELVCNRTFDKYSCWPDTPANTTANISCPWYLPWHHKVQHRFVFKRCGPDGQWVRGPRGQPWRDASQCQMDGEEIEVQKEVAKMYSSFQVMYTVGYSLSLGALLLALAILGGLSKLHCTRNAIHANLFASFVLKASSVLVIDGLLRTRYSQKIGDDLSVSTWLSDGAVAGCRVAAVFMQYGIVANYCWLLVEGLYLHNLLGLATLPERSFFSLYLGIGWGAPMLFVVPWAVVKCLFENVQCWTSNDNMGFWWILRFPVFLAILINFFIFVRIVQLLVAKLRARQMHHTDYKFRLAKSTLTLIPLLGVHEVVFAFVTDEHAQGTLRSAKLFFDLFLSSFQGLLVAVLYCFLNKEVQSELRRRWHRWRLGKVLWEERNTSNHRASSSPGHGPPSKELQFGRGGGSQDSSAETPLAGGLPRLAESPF

Binder | IC50 (human glucagon receptor [1]) [nM] | EC50 GLP-1R, CRE luciferase reporter gene assay in BHK cells (human GLP-1 receptor [2]) [nM] | EC50 GlucR, CRE luciferase reporter gene assay in BHK cells (human glucagon receptor [3]) [nM] | IC50 (human GLP-1 receptor [4]) [nM]
H[Aib]QGTFTSDVSRYLDARRAQDFVQWLLK([AEEA-AEEA-γGlu-γGlu-γGlu-C18 diacid])T-NH2 (N-terminus assumed; SMILES CC(C)C[C@H](NC(=O)[C@H](Cc1ccc(O)cc1)NC(=O)[C@H](CCCNC(=N)N)NC(=O)[C@H](CO)NC(=O)[C@@H](NC(=O)[C@H](CC(=O)O)NC(=O)[C@H](CO)NC(=O)[C@@H](NC(=O)[C@H](Cc1ccccc1)NC(=O)[C@@H](NC(=O)CNC(=O)[C@H](CCC(N)=O)NC(=O)C(C)(C)NC(=O)[C@@H](N)Cc1c[nH]cn1)[C@@H](C)O)[C@@H](C)O)C(C)C)C(=O)N[C@@H](CC(=O)O)C(=O)N[C@@H](C)C(=O)N[C@@H](CCCNC(=N)N)C(=O)N[C@@H](CCCNC(=N)N)C(=O)N[C@@H](C)C(=O)N[C@@H](CCC(N)=O)C(=O)N[C@@H](CC(=O)O)C(=O)N[C@@H](Cc1ccccc1)C(=O)N[C@H](C(=O)N[C@@H](CCC(N)=O)C(=O)N[C@@H](Cc1c[nH]c2ccccc12)C(=O)N[C@@H](CC(C)C)C(=O)N[C@@H](CC(C)C)C(=O)N[C@@H](CCCCNC(=O)COCCOCCNC(=O)COCCOCCNC(=O)CC[C@H](NC(=O)CC[C@H](NC(=O)CC[C@H](NC(=O)CCCCCCCCCCCCCCCCC(=O)O)C(=O)O)C(=O)O)C(=O)O)C(=O)N[C@H](C(N)=O)[C@@H](C)O)C(C)C) | 11.3 | 0.003 | 0.057 | 0.5
H[Aib]HGTFTSDLSKYLESRRARDFVQWLLK([Gly-Ser-Glu-Gly-Ser-γGlu-γGlu-C18 diacid])T-NH2 | 0.1 | 0.004 | 0.002 | 0.2
H[Aib]QGTFTSDLSKYLDLRRARDFVQWLLK([Gly-Ser-Glu-Ser-γGlu-γGlu-C18 diacid])T-NH2 | 18.4 | 0.027 | 0.0305 | 1.1
H[Ac4c]HGTFTSDLSKYLESRRAQDFVQWLLK([Gly-Ser-Glu-Gly-Ser-γGlu-γGlu-C18 diacid])T-NH2 | 0.7 | 0.003 | 0.001 | 2.6
H[Aib]QGTFTSDLSKYLESKAAREFVQWLLK([γGlu-γGlu-AEEA-AEEA-γGlu-C18 diacid])T-NH2 (N-terminus assumed; SMILES CC(C)C[C@H](NC(=O)[C@H](Cc1ccc(O)cc1)NC(=O)[C@H](CCCCN)NC(=O)[C@H](CO)NC(=O)[C@H](CC(C)C)NC(=O)[C@H](CC(=O)O)NC(=O)[C@H](CO)NC(=O)[C@@H](NC(=O)[C@H](Cc1ccccc1)NC(=O)[C@@H](NC(=O)CNC(=O)[C@H](CCC(N)=O)NC(=O)C(C)(C)NC(=O)[C@@H](N)Cc1c[nH]cn1)[C@@H](C)O)[C@@H](C)O)C(=O)N[C@@H](CCC(=O)O)C(=O)N[C@@H](CO)C(=O)N[C@@H](CCCCN)C(=O)N[C@@H](C)C(=O)N[C@@H](C)C(=O)N[C@@H](CCCNC(=N)N)C(=O)N[C@@H](CCC(=O)O)C(=O)N[C@@H](Cc1ccccc1)C(=O)N[C@H](C(=O)N[C@@H](CCC(N)=O)C(=O)N[C@@H](Cc1c[nH]c2ccccc12)C(=O)N[C@@H](CC(C)C)C(=O)N[C@@H](CC(C)C)C(=O)N[C@@H](CCCCNC(=O)CC[C@H](NC(=O)CC[C@H](NC(=O)COCCOCCNC(=O)COCCOCCNC(=O)CC[C@H](NC(=O)CCCCCCCCCCCCCCCCC(=O)O)C(=O)O)C(=O)O)C(=O)O)C(=O)N[C@H](C(N)=O)[C@@H](C)O)C(C)C) | 61 | 0.0119 | 0.506 | 0.2
H[Aib]QGTFTSDVSRYLDLRRAQDFVQWLLK([AEEA-AEEA-γGlu-γGlu-γGlu-C18 diacid])T-NH2 (N-terminus assumed; SMILES CC(C)C[C@H](NC(=O)[C@H](CC(=O)O)NC(=O)[C@H](CC(C)C)NC(=O)[C@H](Cc1ccc(O)cc1)NC(=O)[C@H](CCCNC(=N)N)NC(=O)[C@H](CO)NC(=O)[C@@H](NC(=O)[C@H](CC(=O)O)NC(=O)[C@H](CO)NC(=O)[C@@H](NC(=O)[C@H](Cc1ccccc1)NC(=O)[C@@H](NC(=O)CNC(=O)[C@H](CCC(N)=O)NC(=O)C(C)(C)NC(=O)[C@@H](N)Cc1c[nH]cn1)[C@@H](C)O)[C@@H](C)O)C(C)C)C(=O)N[C@@H](CCCNC(=N)N)C(=O)N[C@@H](CCCNC(=N)N)C(=O)N[C@@H](C)C(=O)N[C@@H](CCC(N)=O)C(=O)N[C@@H](CC(=O)O)C(=O)N[C@@H](Cc1ccccc1)C(=O)N[C@H](C(=O)N[C@@H](CCC(N)=O)C(=O)N[C@@H](Cc1c[nH]c2ccccc12)C(=O)N[C@@H](CC(C)C)C(=O)N[C@@H](CC(C)C)C(=O)N[C@@H](CCCCNC(=O)COCCOCCNC(=O)COCCOCCNC(=O)CC[C@H](NC(=O)CC[C@H](NC(=O)CC[C@H](NC(=O)CCCCCCCCCCCCCCCCC(=O)O)C(=O)O)C(=O)O)C(=O)O)C(=O)N[C@H](C(N)=O)[C@@H](C)O)C(C)C) | 16.2 | 0.005 | 0.049 | 1.5
H[Ac4c]QGTFTSDLSKYLDLKRAREFVQWLLK([Gly-Ser-Glu-Gly-Ser-γGlu-γGlu-C18 diacid])T-NH2 | 3.1 | 0.044 | 0.008 | 0.2
H[Aib]HGTFTSDLSKYLESRRAREFVAWLLK([γGlu-AEEA-AEEA-γGlu-γGlu-C18 diacid])T-NH2 (N-terminus assumed; SMILES CC(C)C[C@H](NC(=O)[C@H](Cc1c[nH]c2ccccc12)NC(=O)[C@H](C)NC(=O)[C@@H](NC(=O)[C@H](Cc1ccccc1)NC(=O)[C@H](CCC(=O)O)NC(=O)[C@H](CCCNC(=N)N)NC(=O)[C@H](C)NC(=O)[C@H](CCCNC(=N)N)NC(=O)[C@H](CCCNC(=N)N)NC(=O)[C@H](CO)NC(=O)[C@H](CCC(=O)O)NC(=O)[C@H](CC(C)C)NC(=O)[C@H](Cc1ccc(O)cc1)NC(=O)[C@H](CCCCN)NC(=O)[C@H](CO)NC(=O)[C@H](CC(C)C)NC(=O)[C@H](CC(=O)O)NC(=O)[C@H](CO)NC(=O)[C@@H](NC(=O)[C@H](Cc1ccccc1)NC(=O)[C@@H](NC(=O)CNC(=O)[C@H](Cc1c[nH]cn1)NC(=O)C(C)(C)NC(=O)[C@@H](N)Cc1c[nH]cn1)[C@@H](C)O)[C@@H](C)O)C(C)C)C(=O)N[C@@H](CC(C)C)C(=O)N[C@@H](CCCCNC(=O)CC[C@H](NC(=O)COCCOCCNC(=O)COCCOCCNC(=O)CC[C@H](NC(=O)CC[C@H](NC(=O)CCCCCCCCCCCCCCCCC(=O)O)C(=O)O)C(=O)O)C(=O)O)C(=O)N[C@H](C(N)=O)[C@@H](C)O) | 0.8 | 0.0195 | 0.0029 | 1.5
H[Ac4c]QGTFTSDLSKYLEERRARDFVQWLLK([Gly-Ser-Glu-Gly-Ser-γGlu-γGlu-C18 diacid])T-NH2 | 3.9 | 0.0058 | 0.113 | 0.2
H[Aib]QGTFTSDLSKYLDSRRAREFVQWLLK([γGlu-γGlu-AEEA-AEEA-γGlu-C18 diacid])T-NH2 (N-terminus assumed; SMILES CC(C)C[C@H](NC(=O)[C@H](Cc1ccc(O)cc1)NC(=O)[C@H](CCCCN)NC(=O)[C@H](CO)NC(=O)[C@H](CC(C)C)NC(=O)[C@H](CC(=O)O)NC(=O)[C@H](CO)NC(=O)[C@@H](NC(=O)[C@H](Cc1ccccc1)NC(=O)[C@@H](NC(=O)CNC(=O)[C@H](CCC(N)=O)NC(=O)C(C)(C)NC(=O)[C@@H](N)Cc1c[nH]cn1)[C@@H](C)O)[C@@H](C)O)C(=O)N[C@@H](CC(=O)O)C(=O)N[C@@H](CO)C(=O)N[C@@H](CCCNC(=N)N)C(=O)N[C@@H](CCCNC(=N)N)C(=O)N[C@@H](C)C(=O)N[C@@H](CCCNC(=N)N)C(=O)N[C@@H](CCC(=O)O)C(=O)N[C@@H](Cc1ccccc1)C(=O)N[C@H](C(=O)N[C@@H](CCC(N)=O)C(=O)N[C@@H](Cc1c[nH]c2ccccc12)C(=O)N[C@@H](CC(C)C)C(=O)N[C@@H](CC(C)C)C(=O)N[C@@H](CCCCNC(=O)CC[C@H](NC(=O)CC[C@H](NC(=O)COCCOCCNC(=O)COCCOCCNC(=O)CC[C@H](NC(=O)CCCCCCCCCCCCCCCCC(=O)O)C(=O)O)C(=O)O)C(=O)O)C(=O)N[C@H](C(N)=O)[C@@H](C)O)C(C)C) | 2.1 | 0.0053 | 0.0063 | 0.3
H[Aib]QGTFTSDLSKYLDLKRAREFVQWLLK([γGlu-γGlu-AEEA-AEEA-γGlu-C18 diacid])T-NH2 | 4 | 0.009 | 0.0087 | 0.5

Reference: patent US20150374794A1 (Novo Nordisk, published 2015)
